± gives the standard deviation of the averaged measurements.
System: ATP
Experiment: switch fluorescence ratio, 500 uM ATP over buffer (Cy3 cluster intensity, sum of 5 cycles each) (fold (ratio)); higher = stronger signal-on switching upon ATP binding; sequences stand for … in TCGTCGGCAGCGTCAGATGTGTATAAGAGACAGTTTTTTTTTTTTTTTTTTTTTTTTT…TC
Conditions: aptamer strand: ATP DNA aptamer (quencher-CACCTGGGGGAGTATTGCGGAGGAAGG + anchor), 100 nM annealed; ATP concentration: 500 uM
Summary of the method: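 Cy3-labelled switching-strand clusters on a modified Illumina MiSeq flow-cell were annealed to 100 nM quencher-labelled ATP aptamer, imaged in selection buffer, then imaged after 15 min with 500 uM ATP at 22 °C. Five buffer/ATP cycles ran, with NaOH stripping and re-annealing between them. The fluorescence ratio is summed target-cycle over summed buffer-cycle Cy3 intensity per cluster, averaged per switch-domain sequence. Clusters outside 100-1000 RFU were excluded.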
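Also: ATP exposure 15 min at 22 °C before imaging.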

| Sequence | switch fluorescence ratio |
| --- | --- |
| GGCGTAAAGT | 1.02 ± 0.036 |
| GGCGTCGAGG | 0.997 ± 0.018 |
| GGCGTGCCGA | 1.011 ± 0.0053 |
| GGCGTGTCGC | 0.9852 ± 0.0037 |
| GGCGTTGGGG | 1 ± 0.023 |
| GGCGTTTGGG | 0.991 ± 0.033 |
| GGCTAAAACT | 1.01 ± 0.015 |
| GGCTAATTGG | 0.99 ± 0.026 |
| GGCTACCTTG | 1.047 ± 0.0038 |
| GGCTAGGGGG | 1.01 ± 0.022 |
| GGCTATATTT | 0.991 ± 0.017 |
| GGCTATTAAA | 1.01 ± 0.011 |
| GGCTCAGGGG | 1.16 ± 0.035 |
| GGCTCATAGT | 0.996 ± 0.017 |
| GGCTCCAGCT | 0.978 ± 0.028 |
| GGCTCCGGGG | 1.03 ± 0.024 |
| GGCTCTAGGG | 0.9921 ± 0.0036 |
| GGCTCTTATT | 1.009 ± 0.0057 |
| GGCTGAATGG | 0.988 ± 0.033 |
| GGCTGATACG | 1.04 ± 0.059 |
| GGCTGGGAGG | 0.99 ± 0.014 |
| GGCTGGGATG | 1.02 ± 0.095 |
| GGCTGGGGCT | 0.973 ± 0.026 |

| Sequence | switch fluorescence ratio |
| --- | --- |
| GGCTGGGTAC | 1.12 ± 0.24 |
| GGCTGGTAGA | 1 ± 0.02 |
| GGCTGGTTTC | 0.9969 ± 0.0089 |
| GGCTGTCGGA | 0.997 ± 0.0034 |
| GGCTGTGGGT | 0.987 ± 0.052 |
| GGCTGTTAAG | 0.983 ± 0.0028 |
| GGCTGTTCGG | 0.988 ± 0.036 |
| GGCTGTTGGT | 0.9655 ± 0.0072 |
| GGCTTAGGCA | 1.01 ± 0.04 |
| GGCTTCGGGG | 0.98028 ± 0.00081 |
| GGCTTGGAGC | 0.996 ± 0.025 |
| GGCTTGGGAG | 0.982 ± 0.019 |
| GGCTTGGGCG | 0.983 ± 0.061 |
| GGCTTTACTA | 1 ± 0.012 |
| GGCTTTGAAG | 0.9951 ± 0.0023 |
| GGCTTTGGGT | 0.991 ± 0.014 |
| GGCTTTGGTC | 1.018 ± 0.0099 |
| GGCTTTGTGG | 0.992 ± 0.02 |
| GGCTTTTTTG | 0.9954 ± 0.0081 |
| GGGAAAAGGG | 0.998 ± 0.035 |
| GGGAAAATGT | 1.02 ± 0.038 |
| GGGAAACCGG | 1.06 ± 0.018 |
| GGGAAACTAA | 1.01 ± 0.031 |

| Sequence | switch fluorescence ratio |
| --- | --- |
| GGGAAAGCG | 1.04 ± 0.036 |
| GGGAAAGGTT | 1.01 ± 0.026 |
| GGGAAATAGC | 1.06 ± 0.036 |
| GGGAAATTGC | 1.04 ± 0.074 |
| GGGAAGAACT | 1.06 ± 0.014 |
| GGGAAGGGAG | 0.983 ± 0.028 |
| GGGAAGGGGA | 1.04 ± 0.12 |
| GGGAAGGGGG | 1 ± 0.034 |
| GGGAAGTGTG | 0.979 ± 0.024 |
| GGGAAGTTGG | 0.986 ± 0.013 |
| GGGAATACAT | 1.01 ± 0.028 |
| GGGAATCAAG | 0.9862 ± 0.0097 |
| GGGAATCGGT | 0.978 ± 0.058 |
| GGGAATCTGC | 1.01 ± 0.026 |
| GGGAATGGAT | 1.01 ± 0.029 |
| GGGAATGGGG | 0.992 ± 0.044 |
| GGGAATGGTG | 1.035 ± 0.0095 |
| GGGAATGTT | 0.992 ± 0.022 |
| GGGAATGTTC | 1.01 ± 0.014 |
| GGGAATTACC | 0.986 ± 0.024 |
| GGGAATTCGA | 1 ± 0.036 |
| GGGACAATGA | 1 ± 0.038 |
| GGGACAGGGA | 1.05 ± 0.066 |

| Sequence | switch fluorescence ratio |
| --- | --- |
| GGGACAGTGG | 1 ± 0.015 |
| GGGACATTTT | 1.026 ± 0.0086 |
| GGGACCGAAC | 1.13 ± 0.029 |
| GGGACCGACT | 1.05 ± 0.016 |
| GGGACCGTGC | 1.07 ± 0.096 |
| GGGACCGTGT | 1.01 ± 0.028 |
| GGGACGGAAC | 1.12 ± 0.03 |
| GGGACGGGGA | 0.978 ± 0.026 |
| GGGACTCGTG | 1.04 ± 0.053 |
| GGGACTGGGT | 0.999 ± 0.012 |
| GGGACTTTCT | 1.01 ± 0.0092 |
| GGGAGAAAGG | 1.011 ± 0.0067 |
| GGGAGAACGA | 0.984 ± 0.015 |
| GGGAGAAGGA | 1.05 ± 0.085 |
| GGGAGAAGGT | 0.967 ± 0.011 |
| GGGAGAGCGT | 0.966 ± 0.018 |
| GGGAGAGGGT | 1.02 ± 0.016 |
| GGGAGAGTGG | 0.9868 ± 0.0015 |
| GGGAGATATG | 0.9788 ± 0.0095 |
| GGGAGATTAA | 0.975 ± 0.013 |
| GGGAGATTTT | 1.01 ± 0.035 |
| GGGAGCATCG | 0.9709 ± 0.0055 |
| GGGAGCGCTT | 1.03 ± 0.012 |

| Sequence | switch fluorescence ratio |
| --- | --- |
| GGGAGGAGAC | 1.02 ± 0.053 |
| GGGAGGCAGA | 0.989 ± 0.065 |
| GGGAGGGAAA | 1.04 ± 0.056 |
| GGGAGGGGG | 0.965 ± 0.045 |
| GGGAGGGTTT | 0.98 ± 0.022 |
| GGGAGGTAGG | 0.991 ± 0.01 |
| GGGAGGTGGG | 1.009 ± 0.0014 |
| GGGAGTAAAG | 0.989 ± 0.013 |
| GGGAGTAAGG | 1.024 ± 0.0025 |
| GGGAGTCAGC | 1.012 ± 0.008 |
| GGGAGTCTTC | 1.04 ± 0.1 |
| GGGAGTGGCA | 1.08 ± 0.15 |
| GGGAGTTAAA | 0.972 ± 0.013 |
| GGGAGTTGG | 0.992 ± 0.017 |
| GGGAGTTGGG | 1.02 ± 0.044 |
| GGGATAACAG | 1.04 ± 0.011 |
| GGGATAAGCC | 1 ± 0.012 |
| GGGATAAGTT | 0.983 ± 0.035 |
| GGGATAGATA | 1.03 ± 0.022 |
| GGGATAGGAA | 0.993 ± 0.03 |
| GGGATAGGCC | 1.02 ± 0.032 |
| GGGATAGGGG | 0.996 ± 0.024 |
| GGGATAGTGC | 1.01 ± 0.021 |

| Sequence | switch fluorescence ratio |
| --- | --- |
| GGGATATCAG | 0.994 ± 0.017 |
| GGGATATCAT | 0.9903 ± 0.0048 |
| GGGATCAAGA | 0.998 ± 0.023 |
| GGGATCAGTA | 0.9602 ± 0.0055 |
| GGGATCGTTT | 0.982 ± 0.046 |
| GGGATGAACG | 1.04 ± 0.021 |
| GGGATGGCAT | 0.995 ± 0.034 |
| GGGATGGCCT | 0.959 ± 0.011 |
| GGGATGTGCG | 1.04 ± 0.027 |
| GGGATTAAGG | 0.999 ± 0.021 |
| GGGATTCCGT | 1.05 ± 0.042 |
| GGGATTGCGG | 1.12 ± 0.23 |
| GGGATTGGGT | 1.01 ± 0.021 |
| GGGATTTATA | 0.995 ± 0.019 |
| GGGATTTGGT | 1.02 ± 0.02 |
| GGGATTTTGC | 0.952 ± 0.015 |
| GGGCAAGGTC | 1.03 ± 0.034 |
| GGGCAAGGTG | 1.21 ± 0.12 |
| GGGCAATATG | 1.17 ± 0.06 |
| GGGCACATCC | 1.02 ± 0.025 |
| GGGCACCAGG | 1.21 ± 0.03 |
| GGGCAGCCTT | 0.99337 ± 0.0002 |
| GGGCAGGGGA | 1.17 ± 0.35 |

| Sequence | switch fluorescence ratio |
| --- | --- |
| GGGCAGTAGG | 1 ± 0.025 |
| GGGCAGTTCG | 1.02 ± 0.027 |
| GGGCATGAAG | 1.016 ± 0.0066 |
| GGGCATGTCT | 1.03 ± 0.042 |
| GGGCATTGCT | 0.9747 ± 0.0069 |
| GGGCCAGGGA | 1 ± 0.024 |
| GGGCCAGTAT | 0.963 ± 0.017 |
| GGGCCATCGT | 0.993 ± 0.026 |
| GGGCCCAAAG | 1 ± 0.021 |
| GGGCCCGAAT | 0.992 ± 0.047 |
| GGGCCCGCGT | 0.98 ± 0.011 |
| GGGCCCTTCG | 1.018 ± 0.0047 |
| GGGCCGGAAA | 1.01 ± 0.049 |
| GGGCCGGGGT | 0.993 ± 0.04 |
| GGGCCGTAGG | 0.99 ± 0.037 |
| GGGCCGTTGG | 0.976 ± 0.042 |
| GGGCCTCGGA | 0.988 ± 0.042 |
| GGGCGAGAGG | 1.02 ± 0.033 |
| GGGCGAGCCT | 1.028 ± 0.008 |
